Patent US20210388049A1 (1GLOBE BIOMEDICAL, published 2021)

What was measured:
[1] = biological target: PDL1 coated on ELISA plates (UniProt Q9NZQ7 19-238, limits assumed); assay: receptor blocking ELISA, biotinylated Fc-PD1 binding to PDL1-coated plates, streptavidin-HRP
Excerpt: (§1) In both cases, binding was detected by using streptavidin linked horse radish peroxidase.

[2] = biological target: T1, biotinylated Fc-PDL1 (UniProt Q9NZQ7 19-238, limits assumed, biotinylated (site not stated)); assay: receptor blocking ELISA, biotinylated Fc-PDL1 binding to PD1-coated plates, streptavidin-HRP
T1 construct: The order of the parts follows the printed name; not shown: Fc portion
Excerpt: as §1

[3] = biological target: T2, human PDL1 transgenically expressed on DLD1 cells (human, UniProt Q9NZQ7 19-290); assay: FACS on DLD1 cells expressing human PDL1, fluorescent anti-human-IgG detection; mean, SD 297
T2 construct: whole, on cells; also called cell surface PDL1; PDLL
Description: To test the ability of the proteins to bind cell surface PDL1, we used DLD1 cells expressing transgenically expressed human PDLL. […] Briefly, 10⁵ cells were incubated with different concentrations of the protein for 30 minutes at 4° C. Cells were washed with PBS and incubated with a fluorescent, anti-human-IgG antibody for 30 minutes at 4° C. Cells were again washed with PBS and binding was detected by FACS.

Sequence of PDL1 coated on ELISA plates (Q9NZQ7 19-238 limits assumed): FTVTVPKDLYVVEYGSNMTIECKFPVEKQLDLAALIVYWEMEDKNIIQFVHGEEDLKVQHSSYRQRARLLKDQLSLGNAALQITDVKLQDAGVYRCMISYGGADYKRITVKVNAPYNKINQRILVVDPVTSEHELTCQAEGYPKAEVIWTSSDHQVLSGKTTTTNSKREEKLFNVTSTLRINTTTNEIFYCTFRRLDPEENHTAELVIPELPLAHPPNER
T1 sequence (Q9NZQ7 19-238 limits assumed): as above
T2 sequence (Q9NZQ7 19-290): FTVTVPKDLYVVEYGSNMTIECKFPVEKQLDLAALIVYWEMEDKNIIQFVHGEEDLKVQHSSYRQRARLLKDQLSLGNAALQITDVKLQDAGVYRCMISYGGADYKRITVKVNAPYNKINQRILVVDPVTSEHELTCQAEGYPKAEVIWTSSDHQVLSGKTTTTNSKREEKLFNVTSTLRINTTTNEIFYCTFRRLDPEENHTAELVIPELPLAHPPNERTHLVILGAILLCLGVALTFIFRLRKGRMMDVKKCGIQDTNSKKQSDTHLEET

IC50 [1] [nM]	IC50 [2] [nM]	EC50 [3] [nM]	Binder
0.8	1.39	–	B2 anti-PDL1 antibody (antibody, human IgG1, lambda, V domains shown) VH: EVQLVESGGGLVQPGGSLRLSCAASGFTFSDYDMIWVRQAPGKGLEWVAVISYDGSNKYYADSVKGRFTISRDNSKNTLYLQMNSLRAEDTAVYYCAKEFFGAFDIWGQGTMVTVSS VL: SSELTQDPAVSVALGQTVTITCQGDSLNYYYANWFQLKPGQAPVLVLFGKNNRPSGIPDRFSGSYSGSTASLTITGAQAEDDADYYCNSRDSGGNPWVFGGGTKLTVLG
16.6	92.7	–	E3 anti-PDL1 antibody (antibody, human IgG1, kappa, V domains shown) VH: QIQLVQSGAEVKKPGSSVKVSCKASGGTFSSYAISWVRQAPGQGLEWMGGIIPIFGTANYAQKFQGRVTITADKSTSTAYMELSSLRSEDTAVYYCAGGGAVADNSYWGQGTLVTVSS VL: DIRMTQSPSSLSASVGDRVTITCRASQGIRNDLGWYQQKPGKAPKLLIYAASSLQSGVPSRFSGSGSGTDFTLTISSLQPEDFATYYCLQDYNYPRTFGQGTKVEIKR
1.53	1.26	1.96	E1 anti-PDL1 antibody (antibody, human IgG1, kappa, V domains shown, The full-length entries begin with the secretory leader; The constant region is human IgG1 type; also called parental antibody) VH: QIQLVQSGAEVKMPGASVTISCEASGYNFISYYIHWVRQAPGQGLEWMGFVVPSGGAAGYTQKFQGRLTVTRDTSTSTVYMDLNSLTSDDTAVYYCVREMSGGWFDFWGQGTLVTVSS VL: DIVMTQSPSSLSASVGDRVTITCRASQGIRNDLGWYQQKPGKAPKLLIYAASTLQSGVPSRFSGSGSGTDFTLTISSLQAEDVAVYYCQQYYSTPLTFGPGTKVDIKR
